Experimental data reported in patent US20240409663A1 (CONCEPT TO MEDICINE BIOTECH, published 2024).

Tests used:
human GPC3 on cells [1] = target: T1, human GPC3 on cells (human, UniProt P51654 25-554); assay: FACS, GPC3-CHOK1 cells
T1 construct: whole, on cells; over-expressed on CHOK1 cells or endogenous on HEPG2, Hep3B and Huh-7 hepatocellular carcinoma cells; the cell line is named under assay; also called GPC3-CHOK1 cells; human GPC3 over-expressed CHOK1 cells
Protocol: Briefly, GPC3-CHOK1 cells were firstly incubated with Fc blocking reagent at 4° C. for 15 mins. Cells were washed by FACS buffer and divided to each well with 3-fold serially diluted 52H5D3B8, 52H5D3B8-1 #, 52H5D3B8-2 #, 52H5D3B8-3 #, 52H5D3B8-4 #, 52H5D3B8-5 #, 52H5D3B8-6 #, 52H5D3B8-7 #, 52H5D3B8-8 #, 52H5D3B8-9 #, 52H5D3B8-10 #, 52H5D3B8-11 #, 52H5D3B8-12 #, 52H5D3B8-13 #, 52H5D3B8-14 # and 52H5D3B8-15# chimeric mAbs starting at 30 μg/mL at 4° C. for 60 mins. Cells were washed by FACS buffer and fixed with 2% PFA at RT for 15 mins. […] Samples were washed twice with FACS buffer.

[2] = target: T2, human GPC3-his tag protein (human, UniProt P51654 25-559, limits assumed); assay: SPR Biacore 8K, mAb captured, one or two doses GPC3-his
T2 construct: recombinant soluble antigen used as analyte in all Biacore runs; also called recombinant GPC3 protein; rhGPC3-His; not shown: His tag
Protocol: The binding of the optimized antibodies of 52H5D3B8 mAb to human GPC3-his was tested with Biacore using a capture method. A single dose or two doses of human GPC3-his tag protein was injected over captured antibody. All the experiments were carried out on a Biacore 8K. Data analysis was carried out using Biacore 8K evaluation software.

human GPC3 on cells [3] = target: T1, human GPC3 on cells; assay: FACS, Hep3B cells
Protocol: (§1) To evaluate the antigen binding property, the humanized antibodies were analyzed for their binding to human GPC3 over-expressed CHOK1 cells, HEPG2 cells, Hep3B cells and Huh-7 cells by FACS. Briefly, GPC3-CHOK1 cells, HEPG2 cells, Hep3B cells and Huh-7 cells were firstly incubated with Fc blocking reagent at 4° C. for 15 mins. Cells were washed by FACS buffer and divided to each well with 4-fold serially diluted humanized antibodies starting at 10 μg/mL at 4° C. for 60 mins. Cells were washed by FACS buffer and fixed with 2% PFA at RT for 15 mins. […] The 16 humanized antibodies were separated into two plates.

human GPC3 on cells [4] = target: T1, human GPC3 on cells; assay: FACS, Huh-7 cells
Protocol: as §1

human GPC3 on cells [5] = target: T1, human GPC3 on cells; assay: FACS, HEPG2 cells
Protocol: as §1

human GPC3 on cells [6] = target: T1, human GPC3 on cells; assay: FACS, GPC3-CHOK1 cells; remark: listed apart in the source
Protocol: as §1

[7] = target: T2, human GPC3-his tag protein; assay: SPR Biacore 8K, mAb captured, affinity ranking
Protocol: To evaluate antigen binding activity, the chimeric antibody's affinity was measured by Biacore 8K. A serial dilution of human GPC3-his tag protein was injected over captured chimeric antibody 52H5D3B8-6 #-VH+VL for 3 mins at a flow rate of 30 μl/min. The antigen was allowed to dissociate for 720 s. Among the multi detection doses, two concentrations with most close affinity to the chimeric antibody's affinity were chosen for the 16 humanized antibodies' affinity detection.

[8] = target: T2, human GPC3-his tag protein; assay: SPR Biacore, mAb captured on CM5, GPC3-his dilution series (full kinetics)
Protocol: The binding of the humanized antibodies to recombinant GPC3 protein (human GPC3-his tag) was tested by Biacore using a capture method. 52H5D3B8-6 #-V+VL, 52H5D3B8-6 #-VH1+VL1, 52H5D3B8-6 #-VH1+VL3, 52H5D3B8-6 #-V1+VL4, 52H5D3B8-6 #-VH2+VL4, 52H5D3B8-6 #-VH3+VL1, 52H5D3B8-6 #-VH3+VL3 mAbs were captured using CM5 sensor chip. A serial dilution of human GPC3-his tag protein was injected over captured antibody for 2 mins at a flow rate of […]. The antigen was allowed to dissociate for 360 s. All the experiments were carried out on a Biacore T200.

Row | Binder | EC50 (human GPC3 on cells [1]) [µg/mL] | Kd [2] [nM] | koff [2] [s⁻¹] | kon [2] [M⁻¹ s⁻¹] | EC50 (human GPC3 on cells [3]) [µg/mL] | EC50 (human GPC3 on cells [4]) [µg/mL] | EC50 (human GPC3 on cells [5]) [µg/mL] | EC50 (human GPC3 on cells [6]) [µg/mL] | Kd [7] [nM] | koff [7] [s⁻¹] | kon [7] [M⁻¹ s⁻¹] | Kd [8] [nM] | koff [8] [s⁻¹] | kon [8] [M⁻¹ s⁻¹]
1 | 52H5D3B8-12# chimeric mAb (antibody, V domains shown, CDR3 mutant of the 52H5D3B8 chimeric mAb (human IgG1)) VH: QVQLQQSGAELVRPGASVKLSCKALGYTFTDYEMHWVKQTPVHGLEWIGAIHPGSGGTAYNQKFKGKATLTADKFSSTGYMELSSLTSEDSAVYYCTRYYSYAYWGQGTLVTVSA VL: DVVMTQTPLSLPVSLGDQASISCRSSQSLVHSNGNTYLQWYLQKPGQSPKLLIYKVSNRFSGVPDRFSGSGSGTDFILKISRVEAEDLGVYFCFQSTHVPYTFGGGTKLEIK | 0.235 | 5.56 | 0.00133 | 240000 | – | – | – | – | – | – | – | – | – | –
2 | 52H5D3B8-14# chimeric mAb (antibody, V domains shown, CDR3 mutant of the 52H5D3B8 chimeric mAb (human IgG1)) VH: QVQLQQSGAELVRPGASVKLSCKALGYTFTDYEMHWVKQTPVHGLEWIGAIHPGSGGTAYNQKFKGKATLTADKFSSTGYMELSSLTSEDSAVYYCTRYYSFAYWGQGTLVTVSA VL: DVVMTQTPLSLPVSLGDQASISCRSSQSLVHSNGNTYLQWYLQKPGQSPKLLIYKVSNRFSGVPDRFSGSGSGTDFILKISRVEAEDLGVYFCFQSIHVPYTFGGGTKLEIK | 0.0895 | 1.53 | 0.000737 | 481000 | – | – | – | – | – | – | – | – | – | –
3 | 52H5D3B8-15# chimeric mAb (antibody, V domains shown, CDR3 mutant of the 52H5D3B8 chimeric mAb (human IgG1)) VH: QVQLQQSGAELVRPGASVKLSCKALGYTFTDYEMHWVKQTPVHGLEWIGAIHPGSGGTAYNQKFKGKATLTADKFSSTGYMELSSLTSEDSAVYYCTRYYSFAYWGQGTLVTVSA VL: DVVMTQTPLSLPVSLGDQASISCRSSQSLVHSNGNTYLQWYLQKPGQSPKLLIYKVSNRFSGVPDRFSGSGSGTDFILKISRVEAEDLGVYFCFQSTHVPYTFGGGTKLEIK | 0.15 | 28.2 | 0.00755 | 267000 | – | – | – | – | – | – | – | – | – | –
4 | 52H5D3B8-13# chimeric mAb (antibody, V domains shown, CDR3 mutant of the 52H5D3B8 chimeric mAb (human IgG1)) VH: QVQLQQSGAELVRPGASVKLSCKALGYTFTDYEMHWVKQTPVHGLEWIGAIHPGSGGTAYNQKFKGKATLTADKFSSTGYMELSSLTSEDSAVYYCTRYYSFAYWGQGTLVTVSA VL: DVVMTQTPLSLPVSLGDQASISCRSSQSLVHSNGNTYLQWYLQKPGQSPKLLIYKVSNRFSGVPDRFSGSGSGTDFILKISRVEAEDLGVYFCSQSTHVPYTFGGGTKLEIK | 1.55 | 28.9 | 0.00143 | 49600 | – | – | – | – | – | – | – | – | – | –
5 | 52H5D3B8-6#-VH2+VL1 (antibody, V domains shown, humanized) VH: QVQLVQSGAEVKKPGASVKVSCKASGYTFTDYEMHWVRQAPGQGLEWIGAIHPGSGGTAYNQKFKGRVTMTADTSTSTVYMELSSLRSEDTAVYYCTRYYSYAYWGQGTLVTVSS VL: DIVMTQTPLSLSVTPGQPASISCRSSQSLVHSNGNTYLQWYLQKPGQSPQLLIYKVSNRFSGVPDRFSGSGSGTDFTLKISRVEAEDVGVYYCFQSIHVPYTFGGGTKLEIK | – | – | – | – | 0.0824 | 0.0427 | 0.0479 | 0.0384 | 1.15 | 0.000742 | 646000 | – | – | –
6 | 52H5D3B8-6#-VH3+VL2 (antibody, V domains shown, humanized) VH: QVQLVQSGAEVKKPGASVKVSCKALGYTFTDYEMHWVKQAPGQGLEWIGAIHPGSGGTAYNQKFKGRVTLTADTSTSTVYMELSSLRSEDTAVYYCTRYYSYAYWGQGTLVTVSS VL: DIVMTQTPLSLSVTPGQPASISCRSSQSLVHSNGNTYLQWYLQKPGQSPQLLIYKVSNRFSGVPDRFSGSGSGTDFTLKISRVEAEDVGVYFCFQSIHVPYTFGGGTKLEIK | – | – | – | – | 0.0786 | 0.0411 | 0.0444 | 0.0429 | 0.883 | 0.000587 | 664000 | – | – | –
7 | 52H5D3B8-6#-VH2+VL2 (antibody, V domains shown, humanized) VH: QVQLVQSGAEVKKPGASVKVSCKASGYTFTDYEMHWVRQAPGQGLEWIGAIHPGSGGTAYNQKFKGRVTMTADTSTSTVYMELSSLRSEDTAVYYCTRYYSYAYWGQGTLVTVSS VL: DIVMTQTPLSLSVTPGQPASISCRSSQSLVHSNGNTYLQWYLQKPGQSPQLLIYKVSNRFSGVPDRFSGSGSGTDFTLKISRVEAEDVGVYFCFQSIHVPYTFGGGTKLEIK | – | – | – | – | 0.0846 | 0.0434 | 0.0481 | 0.043 | 1.15 | 0.000749 | 651000 | – | – | –
8 | 52H5D3B8-6#-VH3+VL1 (antibody, V domains shown, humanized) VH: QVQLVQSGAEVKKPGASVKVSCKALGYTFTDYEMHWVKQAPGQGLEWIGAIHPGSGGTAYNQKFKGRVTLTADTSTSTVYMELSSLRSEDTAVYYCTRYYSYAYWGQGTLVTVSS VL: DIVMTQTPLSLSVTPGQPASISCRSSQSLVHSNGNTYLQWYLQKPGQSPQLLIYKVSNRFSGVPDRFSGSGSGTDFTLKISRVEAEDVGVYYCFQSIHVPYTFGGGTKLEIK | – | – | – | – | 0.0738 | 0.0413 | 0.0471 | 0.0373 | 0.838 | 0.000578 | 689000 | 1 | 0.000579 | 579000
9 | 52H5D3B8-6#-VH2+VL4 (antibody, V domains shown, humanized) VH: QVQLVQSGAEVKKPGASVKVSCKASGYTFTDYEMHWVRQAPGQGLEWIGAIHPGSGGTAYNQKFKGRVTMTADTSTSTVYMELSSLRSEDTAVYYCTRYYSYAYWGQGTLVTVSS VL: DIVMTQTPLSLSVTPGQPASISCRSSQSLVHSNGNTYLQWYLQKPGQSPKLLIYKVSNRFSGVPDRFSGSGSGTDFTLKISRVEAEDVGVYFCFQSIHVPYTFGGGTKLEIK | – | – | – | – | 0.0632 | 0.0381 | 0.0438 | 0.041 | 0.994 | 0.000645 | 648000 | 1.12 | 0.000669 | 599000
10 | 52H5D3B8-6#-VH1+VL4 (antibody, V domains shown, humanized) VH: QVQLVQSGAEVKKPGASVKVSCKASGYTFTDYEMHWVRQAPGQGLEWMGAIHPGSGGTAYNQKFKGRVTMTRDTSTSTVYMELSSLRSEDTAVYYCARYYSYAYWGQGTLVTVSS VL: DIVMTQTPLSLSVTPGQPASISCRSSQSLVHSNGNTYLQWYLQKPGQSPKLLIYKVSNRFSGVPDRFSGSGSGTDFTLKISRVEAEDVGVYFCFQSIHVPYTFGGGTKLEIK | – | – | – | – | 0.0545 | 0.0268 | 0.0391 | 0.0308 | 1.74 | 0.000947 | 546000 | 1.85 | 0.000984 | 532000
11 | 52H5D3B8-6#-VH1+VL3 (antibody, V domains shown, humanized) VH: QVQLVQSGAEVKKPGASVKVSCKASGYTFTDYEMHWVRQAPGQGLEWMGAIHPGSGGTAYNQKFKGRVTMTRDTSTSTVYMELSSLRSEDTAVYYCARYYSYAYWGQGTLVTVSS VL: DIVMTQTPLSLSVTPGQPASISCRSSQSLVHSNGNTYLQWYLQKPGQSPKLLIYKVSNRFSGVPDRFSGSGSGTDFTLKISRVEAEDVGVYYCFQSIHVPYTFGGGTKLEIK | – | – | – | – | 0.0529 | 0.0265 | 0.0387 | 0.0341 | 1.74 | 0.000975 | 561000 | 1.76 | 0.000872 | 494000
12 | 52H5D3B8-6#-VH1+VL2 (antibody, V domains shown, humanized) VH: QVQLVQSGAEVKKPGASVKVSCKASGYTFTDYEMHWVRQAPGQGLEWMGAIHPGSGGTAYNQKFKGRVTMTRDTSTSTVYMELSSLRSEDTAVYYCARYYSYAYWGQGTLVTVSS VL: DIVMTQTPLSLSVTPGQPASISCRSSQSLVHSNGNTYLQWYLQKPGQSPQLLIYKVSNRFSGVPDRFSGSGSGTDFTLKISRVEAEDVGVYFCFQSIHVPYTFGGGTKLEIK | – | – | – | – | 0.0615 | 0.0326 | 0.043 | 0.0388 | 2 | 0.00113 | 564000 | – | – | –
